Measurements reported in patent US20220333124.
Changes are numbered by the printed parent chain.

Assays:
[1] = tested on: T1, Pb2Cpf1 (Prevotella bryantii B14); experiment: cell_activity; conditions: pea protoplasts, NGS; PAM TTTC per claims
T1 sequence: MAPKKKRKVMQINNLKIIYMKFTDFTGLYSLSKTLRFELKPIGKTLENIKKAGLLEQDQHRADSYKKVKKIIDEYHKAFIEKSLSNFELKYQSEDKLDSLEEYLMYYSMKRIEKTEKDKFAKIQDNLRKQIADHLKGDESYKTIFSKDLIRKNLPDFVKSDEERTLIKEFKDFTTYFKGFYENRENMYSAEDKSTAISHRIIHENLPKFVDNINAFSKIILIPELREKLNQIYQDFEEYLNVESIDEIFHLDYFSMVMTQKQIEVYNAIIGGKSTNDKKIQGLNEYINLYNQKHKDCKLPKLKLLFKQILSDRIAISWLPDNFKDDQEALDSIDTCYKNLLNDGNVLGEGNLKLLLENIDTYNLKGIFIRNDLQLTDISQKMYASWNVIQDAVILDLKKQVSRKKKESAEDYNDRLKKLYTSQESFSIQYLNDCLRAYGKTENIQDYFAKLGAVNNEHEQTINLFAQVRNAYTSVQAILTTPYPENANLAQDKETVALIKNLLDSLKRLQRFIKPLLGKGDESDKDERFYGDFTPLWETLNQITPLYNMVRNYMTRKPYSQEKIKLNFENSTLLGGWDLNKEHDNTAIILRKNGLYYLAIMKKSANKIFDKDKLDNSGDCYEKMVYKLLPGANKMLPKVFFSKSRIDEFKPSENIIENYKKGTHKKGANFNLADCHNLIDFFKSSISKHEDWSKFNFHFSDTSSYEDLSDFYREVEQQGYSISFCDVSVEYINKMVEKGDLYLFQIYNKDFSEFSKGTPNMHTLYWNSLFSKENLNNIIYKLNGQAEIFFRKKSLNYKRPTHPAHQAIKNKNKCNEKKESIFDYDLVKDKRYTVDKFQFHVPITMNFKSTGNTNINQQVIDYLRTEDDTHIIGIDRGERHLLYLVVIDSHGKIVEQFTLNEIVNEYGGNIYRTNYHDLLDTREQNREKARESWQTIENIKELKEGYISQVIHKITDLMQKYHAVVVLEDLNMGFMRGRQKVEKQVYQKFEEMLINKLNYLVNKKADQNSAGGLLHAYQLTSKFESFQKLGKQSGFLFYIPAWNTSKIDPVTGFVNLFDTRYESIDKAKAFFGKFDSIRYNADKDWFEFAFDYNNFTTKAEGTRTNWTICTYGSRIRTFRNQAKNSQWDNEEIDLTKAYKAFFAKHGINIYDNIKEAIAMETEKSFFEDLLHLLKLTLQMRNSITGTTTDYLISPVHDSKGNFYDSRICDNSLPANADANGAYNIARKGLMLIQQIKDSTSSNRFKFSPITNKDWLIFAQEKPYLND

[2] = tested on: T2, Pb2Cpf1 E173R (Prevotella bryantii B14); experiment: cell_activity; conditions: pea protoplasts, NGS; PAM TTTC per claims
T2 sequence: T1 sequence with E182R

With “PsLOX2 guide RNA (plasmid 133806, MtU6 promoter; plasmid sequence given) ; PsLOX2 genomic target” the activity [1] was 0.32 % editing and the activity [2] was 0.88 % editing.
